This is an account of results in the supplement of paper PMC12764529.

Data set [1] can be described thus: folding stability dG unfold from trypsin proteolysis; higher = more stable. Summed up: (§1)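 Bayesian fitting of sequencing counts gave K50 for each design. Unfolding free energy followed by setting this against a sequence-predicted unfolded-state K50 and a shared folded-state K50, either per protease or with trypsin and chymotrypsin combined. The designs, under 80 residues and lacking cysteine, were digested in a PA-tagged cDNA display format at 11 threefold-diluted protease concentrations and without protease, and only those with AlphaFold2 dimer inter-PAE above 15 were kept.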

Data set [2] in a line: folding stability dG unfold from chymotrypsin proteolysis; higher = more stable. Summed up:
as §1

Data set [3] can be described thus: folding stability dG unfold (combined trypsin and chymotrypsin); higher = more stable. The procedure, abridged:
as §1

± gives the half width of the 95% confidence interval.

In the case of “SAGGNFEIWRHPENGILWIEFRIPAGEPLEIPLKFKAPNGKPIKITKFHIWPMNDWWYIKFIIKIPPSAGGS [r16_499_TrROS]”, the “folding stability dG unfold” value came to 3.15 ± 0.12 kcal/mol in data set [1], 2.84 ± 0.06 kcal/mol in data set [2] and 2.99 ± 0.25 kcal/mol in data set [3].

Consider “SAGGNIEVDNDMIEIPFPGGFTIMIRLPPDKGKVTVHIERDPNNPMFREFAKEIADQLPGLPVEVHPWSAGG [r13_34_TrROS]”, for which the “folding stability dG unfold” value in data set [1] came out at 0.996 ± 0.11 kcal/mol; in data set [2], 0.414 ± 0.14 kcal/mol; in data set [3], 0.752 ± 0.08 kcal/mol.

Regarding “SAGGNIKIEDIEIMKPMKDPDGNPDKPMYMVSIRIEHEYKYPDGPMKHKHEIMIMMPPNDPDEALDELSAGG [r13_149_TrROS]”, the “folding stability dG unfold” value was 0.897 ± 0.081 kcal/mol in data set [1], 0.758 ± 0.041 kcal/mol in data set [2] and 0.877 ± 0.11 kcal/mol in data set [3].

Turning to “SAGGNIRIWFPGREIPIGGTVEDIKANIRKWLGRPIPEELIEQIDKGKTVSEIVDWLRKRGFPIRIWSAGGS [r16_601_TrROS]”, the entries for the “folding stability dG unfold” value in data set [1], in data set [2] and in data set [3] were 1.78 ± 0.031 kcal/mol, 1.94 ± 0.16 kcal/mol and 1.87 ± 0.11 kcal/mol, respectively.

Consider “SAGGNKEHKVTLEIYIMMWPDPDNGQPYPMPLEIEAPYKNNDPEAAEADIKELLKEIPIPPWMKDMISAGGS [r16_40_TrROS]”, for which the “folding stability dG unfold” value was determined as 1.19 ± 0.12 kcal/mol in data set [1], 0.692 ± 0.15 kcal/mol in data set [2] and 0.988 ± 0.39 kcal/mol in data set [3].

Consider “SAGGNMWEQIRMIVRELAKEGHPWITFDKIHKELGRPITPEWREWLRDAGFIEHDPNGSMTFRIPPGASAGG [r13_188_TrROS]”, for which the entries for the “folding stability dG unfold” value in data set [1], in data set [2] and in data set [3] were 1.36 ± 0.032 kcal/mol, 0.89 ± 0.1 kcal/mol and 1.17 ± 0.056 kcal/mol, respectively.

Consider “SAGGNPASATVTINEDILVNGSPEEARALVEARAKAEGITITDVTITPVPGDPSVYRVSATFSKTLASAGGS [r8_479_JUSTAS]”, for which the figures for the “folding stability dG unfold” value in data set [1], in data set [2] and in data set [3] were 1.91 ± 0.038 kcal/mol, 1.9 ± 0.1 kcal/mol and 1.87 ± 0.15 kcal/mol, respectively.

As for “SAGGNRIMFFFDTPEQAREIAKELAKNFPGYKLDVEVHTQEMKVKDPDNGEEQRYPMVMVEIEIKPPSAGGS [r16_828_TrROS]”, the “folding stability dG unfold” value came to 1.6 ± 0.049 kcal/mol in data set [1], 1.44 ± 0.13 kcal/mol in data set [2] and 1.52 ± 0.17 kcal/mol in data set [3].

Take “SAGGNWKIRNPKNGRTIEIDNFNPGNGMFRVKVWNPNGNKEEHPIPGSLEEILEFLQKKGWPVEIERSAGGS [r16_748_TrROS]”: the “folding stability dG unfold” value in data set [1] was found to be 0.27 ± 0.21 kcal/mol; in data set [2], 0.888 ± 0.2 kcal/mol; in data set [3], 0.626 ± 0.23 kcal/mol.

In the case of “SAGGNWPMRIKIEDPGEEKTIPIPITKVEPNPPPGKLMIFWPDGWVLTFDPKNWRIKKIEPMPDPDEMSAGG [r13_636_TrROS]”, the “folding stability dG unfold” value came to 0.942 ± 0.084 kcal/mol in data set [1], 0.822 ± 0.13 kcal/mol in data set [2] and 1.05 ± 0.37 kcal/mol in data set [3].

On to “SAGGNWRIRVKIEGPDGKTVNHWFWIPNLEDLLSFIQSQPGPKIKDVEIEPPPKDKQYYIPFTMTIPPSAGG [r13_796_TrROS]”, for which the figures for the “folding stability dG unfold” value in data set [1], in data set [2] and in data set [3] were 1.72 ± 0.031 kcal/mol, 1.87 ± 0.11 kcal/mol and 1.8 ± 0.11 kcal/mol, respectively.

On to “SAGGPDDMKIIEETTIRFPENGMQFNIRIYKLPDNDVFIEAEMIMPNGKPVGRMEARVPNGKPIEIPFSAGG [r13_573_TrROS]”, for which the “folding stability dG unfold” value is 0.854 ± 0.04 kcal/mol in data set [1], 1.64 ± 0.12 kcal/mol in data set [2] and 1.36 ± 0.087 kcal/mol in data set [3].

“SAGGPDLVPVARAVYRIDVPPDRTAEEVRREIEERLRPLGVRRVVVPVFYDPERGYLLVVAEVYRSPEESAG [r5_924_TrMRF]”: the “folding stability dG unfold” value was determined as 1.82 ± 0.036 kcal/mol in data set [1], 2.17 ± 0.1 kcal/mol in data set [2] and 2.06 ± 0.081 kcal/mol in data set [3].

On to “SAGGPEIRLRVRRPVRLTRRELLPDGTWRTLPARPGYEELEITFTGPEETARRLREELERLGYEVEEVSAGG [r13_452_TrMRF]”, for which the figures for the “folding stability dG unfold” value in data set [1], in data set [2] and in data set [3] were 1.76 ± 0.056 kcal/mol, 2.84 ± 0.066 kcal/mol and 2.44 ± 0.12 kcal/mol, respectively.

“SAGGPEIVKLDFTLDPNGNLVFTFELKDGTKYEIKINPENPTIEIKEIEKIEPKPIPEDDPELLKEKSAGGS [r16_482_TrMRF]”: the “folding stability dG unfold” value turned out to be 1.54 ± 0.17 kcal/mol in data set [1], 3.24 ± 0.059 kcal/mol in data set [2] and 2.49 ± 0.78 kcal/mol in data set [3].
